The text below walks through data of PMC11339278 (2024).

For one test, the target named is CCDC22 (endogenous). Description: GFP-nanotrap pull-down, quantitative western blot. Particulars: HEK293T cells, transient co-transfection; n = 3; parent: est. 1.0; read off a plot.
A further test has as its target CCDC93 (endogenous). Description: GFP-nanotrap pull-down, quantitative western blot. The conditions noted are these: HEK293T cells, transient co-transfection; n = 3; parent: est. 1.0; read off a plot. On the technique in general: A western blot detects proteins with antibodies after separation by electrophoresis.
In another test the target is VPS29 (endogenous). Description: GFP-nanotrap pull-down, quantitative western blot. Particulars: HEK293T cells, transient co-transfection; n = 3; parent: est. 1.0; read off a plot.
Test [1] deals with T1, SNX17 full length (residue 1-470) with an intramolecular decaHis tag (human, UniProt Q15036 1-470).
T1 chain: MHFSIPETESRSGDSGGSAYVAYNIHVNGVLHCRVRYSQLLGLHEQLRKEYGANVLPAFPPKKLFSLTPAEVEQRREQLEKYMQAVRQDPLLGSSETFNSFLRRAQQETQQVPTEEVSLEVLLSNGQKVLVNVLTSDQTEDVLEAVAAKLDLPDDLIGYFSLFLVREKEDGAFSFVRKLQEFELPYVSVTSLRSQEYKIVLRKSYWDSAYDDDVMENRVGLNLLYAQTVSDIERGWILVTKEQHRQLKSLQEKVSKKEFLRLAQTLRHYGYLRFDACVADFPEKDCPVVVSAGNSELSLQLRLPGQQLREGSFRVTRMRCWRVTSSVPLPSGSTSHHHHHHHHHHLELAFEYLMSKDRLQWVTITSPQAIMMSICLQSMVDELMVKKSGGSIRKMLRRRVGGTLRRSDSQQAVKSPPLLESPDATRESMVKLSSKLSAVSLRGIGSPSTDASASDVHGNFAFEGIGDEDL
Description: ITC. In general terms: In ITC the heat of successive injections is recorded.

Test [2] concerns the target T2, SNX17ΔC (residue 1-390) with an intramolecular decaHis tag (human, UniProt Q15036 1-390).
T2 chain: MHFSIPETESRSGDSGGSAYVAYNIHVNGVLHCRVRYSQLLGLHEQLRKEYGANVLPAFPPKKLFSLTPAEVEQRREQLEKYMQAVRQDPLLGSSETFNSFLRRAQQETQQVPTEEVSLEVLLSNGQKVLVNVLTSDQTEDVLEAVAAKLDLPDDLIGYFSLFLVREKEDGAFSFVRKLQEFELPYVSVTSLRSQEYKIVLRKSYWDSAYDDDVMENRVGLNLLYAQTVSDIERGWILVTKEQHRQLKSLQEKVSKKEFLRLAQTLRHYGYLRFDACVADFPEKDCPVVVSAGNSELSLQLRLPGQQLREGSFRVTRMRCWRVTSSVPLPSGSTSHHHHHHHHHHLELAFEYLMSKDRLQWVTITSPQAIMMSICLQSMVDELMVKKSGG
Kind of test: ITC.

The target in test [3] is SNX17 full length (residue 1-470) with an intramolecular decaHis tag (human) (UniProt Q15036). Description: ITC; APP or LRP1 peptide at 250 μM injected into 20 μM SNX17 FL or SNX17ΔC; 13 x 3.22 μL; 10 °C; 500 mM NaCl, 100 mM Tris pH 8.0, 5% glycerol; single site binding model.
Test [4] deals with SNX17ΔC (residue 1-390) with an intramolecular decaHis tag (human) (UniProt Q15036). The test is described as above.
Test [5] has as its target SNX17 full length (residue 1-470) with an intramolecular decaHis tag (human) (UniProt Q15036). Description: ITC; Microcal PEAQ, 10 °C, 500 mM NaCl, 100 mM Tris pH 8.0, 5% glycerol; 250 µM APP or LRP1 peptide, or 2 mM SNX17 tail peptide, injected into 20 µM SNX17 FL or SNX17ΔC; single site binding model.
In test [6] the target is SNX17ΔC (residue 1-390) with an intramolecular decaHis tag (human) (UniProt Q15036). Kind of test: ITC; 2 mM SNX17 tail peptide injected into 20 μM SNX17 FL or SNX17ΔC; 13 x 3.22 μL; 10 °C; 500 mM NaCl, 100 mM Tris pH 8.0, 5% glycerol; single site binding model.

Regarding “VPS35L-GFP (from UniProt Q7Z3J2-1) R248A”, the figures for the ratio to parent with CCDC22 (endogenous), with CCDC93 (endogenous) and with VPS29 (endogenous) were 1, 1.1 and 1.1, respectively.
Regarding “VPS35L-GFP (from UniProt Q7Z3J2-1) W280A”, the ratio to parent is 0.75 in the test with CCDC22 (endogenous), 0.73 in the test with CCDC93 (endogenous) and 0.62 with VPS29 (endogenous).
On the same counts, the results for “VPS35L-GFP (from UniProt Q7Z3J2-1) K283E” are 0.95, 0.88 and 0.97.
In the case of VEIGNPTYKMYEGG [LRP1 cargo recognition peptide (4466-4479)], the Kd in [1] turned out to be 13.6 µM; in [2], 3.64 µM; in test [3], 14.3 µM; in test [4], 4.6 µM. Moreover, in [5], the fold lower affinity than for SNX17ΔC was found to be 2 fold.
Taken in the same sequence, the figures for NGYENPTYKFFEQM [APP cargo recognition peptide (755-768)] were 14.8 µM, 4.74 µM, 16 µM, 7.03 µM and 2 fold.
For the molecule SASDVHGNFAFEGIGDEDL [synthetic peptide of the SNX17 tail (452-470)], the Kd in [2] amounted to 116 µM; in test [6], 189 µM.
